Our source for the Kd values is WO2018019380A1 (dated 2018).

For the test, the target named is T1, CEACAM1 (as used for the Kd / Kon / Koff values) (human, UniProt P13688 35-428, limits assumed).
T1 sequence (looked up): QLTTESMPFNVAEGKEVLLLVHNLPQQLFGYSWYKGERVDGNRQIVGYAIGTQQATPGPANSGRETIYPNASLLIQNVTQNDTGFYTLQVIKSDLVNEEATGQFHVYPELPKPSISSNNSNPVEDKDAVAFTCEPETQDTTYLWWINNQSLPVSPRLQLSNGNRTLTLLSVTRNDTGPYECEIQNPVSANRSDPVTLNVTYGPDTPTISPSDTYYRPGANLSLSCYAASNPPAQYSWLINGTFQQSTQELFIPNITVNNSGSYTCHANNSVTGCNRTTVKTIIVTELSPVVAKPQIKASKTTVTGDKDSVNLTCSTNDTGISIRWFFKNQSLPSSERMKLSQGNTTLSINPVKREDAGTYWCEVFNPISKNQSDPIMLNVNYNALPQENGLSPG
As to the kind of experiment: method not stated.

B1: Anti-human CEACAM1 antibody (Clone 18-20) (antibody, V domains shown)
VH: KPGETVKISCKASGYTFTVYGMNWVKQAPGKDLKWMGWINTYTGEPTYADDFKGRFAFSLETSASTAYLQINNLKNEDMATYFCARKAFYRYDGGMDYWGQGTSVTVSS
VL: SSLSASLGGKVTITCKASQDINKFLAWYQHKPGKGPRLLIHYTSTLQPGIPSRFSGSGSGRDYSFSISNLEPEDIATYYCLQYDNLYTFGGGTKLEIK
notes: Mouse monoclonal antibody from hybridoma 18-20; also called Antikörper 18-20; antibody 18-20
In the case of B1, the dissociation constant Kd – broadly, the constant that tells how readily two partners part at equilibrium – came to 26 nM.

B2: Anti-human CEACAM1 antibody (Clone B3-17) (antibody, V domains shown)
VH: GPELVKPGTSVKMSCKASGYTFTTYVMHWVQQKPGQGLDWIGFFNPYNDGTKYNEKFKGKATLTSDKSSSTAYMELSSLTSEDSAVYYCARWAYDGSYAYWGQGTTLTVSS
VL: SYLSVFLGGRVTITCKASDHINNWLAWYQQKPGNAPRLLISGATSLETGVPSRFSGSGSGKDYTLSIISLQTEDVATYYCQQYWRTPFTFGSGTKLEIK
notes: Mouse monoclonal antibody from hybridoma B3-17; also called Antikörper B3-17; antibody B3-17
B2 returned a Kd of 10 nM.

B3: Anti-human CEACAM1 antibody (Clone 6G5J) (antibody, V domains shown)
VH: KPGETVKISCKTSGYIFRNYGMKWVKQAPGKGLKWMGWINTYTGEPTYADDFKGRFAFSLETSASTAYLQINNLKNEDMATYFCARRGMITTSNYALDNWGQGTSVTVSS
VL: SSLSASLGDRVTISCRASQDISNYLNWYQQKPDGTIKLLIYYTSKLHSGVPSRFSGSGSGTDYSLTISNLDQEDIATYFCQQGNTLPWTFGGGTKLEIK
notes: Mouse monoclonal antibody from hybridoma 6G5J; also called Antikörper 6G5J; antibody 6G5J
As to B3, the Kd turned out to be 23 nM.
